Broadly, the IC50 is the point on the concentration scale where inhibition reaches its midpoint.

Experiment [1] addresses T1, human CX3CR1 receptor (human, UniProt P49238 1-355).
T1 construct: Expressed on stably transfected HEK or CHO cells, or endogenous on human PBMC (CD8+ T cells, NK cells); also called HEK-CX3CR1 cells; CHO-CX3CR1 cells
T1 sequence: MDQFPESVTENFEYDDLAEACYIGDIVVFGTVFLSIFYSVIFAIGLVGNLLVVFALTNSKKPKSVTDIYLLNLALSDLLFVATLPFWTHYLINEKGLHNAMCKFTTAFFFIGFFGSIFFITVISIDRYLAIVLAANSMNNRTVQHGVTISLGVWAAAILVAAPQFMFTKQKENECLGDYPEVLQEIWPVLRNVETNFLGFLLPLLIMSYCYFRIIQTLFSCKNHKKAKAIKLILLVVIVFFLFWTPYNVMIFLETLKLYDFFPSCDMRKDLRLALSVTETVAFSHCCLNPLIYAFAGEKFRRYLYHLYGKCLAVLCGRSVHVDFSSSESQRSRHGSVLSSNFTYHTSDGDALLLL
The experiment in a line: flow cytometry of phage on cells. (In general: A flow cytometer gives signals particle by particle.)

Experiment [2] addresses T1, human CX3CR1 receptor. The experiment in a line: competitive radioligand binding, CX3CR1-expressing CHO cells, 125I-FKN tracer. The procedure: (§1) Assays were performed as previously described by Moatti et al. (2001, Blood 97, 1925-8). Competitive binding to HEK-CX3CR1 and CHO-CX3CR1 cells was performed with 50 pM [¹²⁵I]-CX3CL1 (Amersham General Electric, Saclay, France) plus variable amounts of unlabeled ligand. Each concentration was assayed in duplicate. After 2 h at 37° C., cells were washed and radioactivity in the cell pellet was quantified with a gamma counter (LKB Wallac, Saint Quentin en Yvelines, France).
(§2) Assays for determining the competitive radioligand binding of F2 and of F2-Ig to CX3CR1 were carried out as described in Example 1.8.

The target of experiment [3] is T1, human CX3CR1 receptor. The experiment in a line: competitive radioligand binding, CX3CR1-expressing HEK cells, 125I-FKN tracer. The protocol: as §1, §2
The target of experiment [4] is T1, human CX3CR1 receptor. The experiment in a line: competitive radioligand binding, HEK-CX3CR1 cells, [125I]-CX3CL1 tracer. The procedure: as §1
CX3CL1 in a competition binding, with HEK-CX3CR1 cells and [¹²⁵I]-CX3CL1 as a tracer. The F1 analogue interacted with CX3CR1, although with a lower affinity than CX3CL1. […] A similar difference in affinity was apparent when F1 and CX3CL1 were tested on CHO-CX3CR1 cells, and when the affinity of CX3CL1-Ig was compared to that of F1-Ig.

The next experiment concerns the target T2, CCR5 (on HEK-CCR5 cells) (UniProt P51681 1-352, limits assumed).
T2 construct: whole, on cells; also called CCR5-expressing cells
Nature of the experiment: flow cytometry of phage on cells.

T2 sequence (P51681 whole entry): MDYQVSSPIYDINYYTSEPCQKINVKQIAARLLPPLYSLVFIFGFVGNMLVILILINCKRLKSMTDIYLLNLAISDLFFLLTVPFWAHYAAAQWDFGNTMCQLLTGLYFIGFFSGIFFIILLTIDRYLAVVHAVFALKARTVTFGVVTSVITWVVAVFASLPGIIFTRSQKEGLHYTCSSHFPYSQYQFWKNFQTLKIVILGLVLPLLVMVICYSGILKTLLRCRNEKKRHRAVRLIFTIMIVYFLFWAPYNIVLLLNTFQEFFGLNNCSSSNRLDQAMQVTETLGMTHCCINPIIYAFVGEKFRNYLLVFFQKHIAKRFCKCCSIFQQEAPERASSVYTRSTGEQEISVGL

B1: CCL5-expressing phage (other, UniProt P13501 24-91, looked up, not shown: large carriers)
chain: SPYSSDTTPCCFAYIARPLPRAHIKEYFYTSGKCSNPAVVFVTRKNRQVCANPEKKWVREYINSLEMS
notes: Control phage
For B1, the binding result with human CX3CR1 receptor [1] is “no binding”.

B2: CX3CL1-Ig (CX3CL1 chemokine domain fused to murine Fc) (Fc fusion)
chain: QHHGVTKCNITCSKMTSKIPVALLIHYQQNQASCGKRAIILETRQHRLFCADPKEQWVKDAMQHLDRQAAALTRNGEPRGPTIKPCPPCKCPAPNLEGGPSVFIFPPKIKDVLMISLSPIVTCVVVDVSEDDPDVQISWFVNNVEVHTAQTQTHREDYNSTLRVVSALPIQHQDWMSGKAFACAVNNKDLPAPIERTISKPKGSVRAPQVYVLPPPEEEMTKKQVTLTCMVTDFMPEDIYVEWTNNGKTELNYKNTEPVLDSDGSYFMYSKLRVEKKNWVERNSYSCSVVHEGLHNHHTTKSFSRTPGK
notes: domain: Fcγ2a fragment; also called FKN-Ig
Regarding B2, in the experiment with human CX3CR1 receptor [2], the IC50 was determined as 1.47 nM.

B3: CX3CL1 (native human soluble chemokine) (ligand)
chain: QHHGVTKCNITCSKMTSKIPVALLIHYQQNQASCGKRAIILETRQHRLFCADPKEQWVKDAMQHLDRQAAALTRNG
notes: The tracer is iodinated CX3CL1 from Amersham; also called fractalkine; FKN
For the molecule B3, in the experiment with human CX3CR1 receptor [3], the half-maximal inhibitory concentration (IC50) is 0.58 nM. For the same molecule, in the experiment with human CX3CR1 receptor [4], the IC50 turned out to be 0.16 nM and the “Log IC50” value was -9.79.

B4: CX3CL1-phage (human CX3CL1 chemokine domain displayed on phage) (other, not shown: large carriers)
chain: QHHGVTKCNITCSKMTSKIPVALLIHYQQNQASCGKRAIILETRQHRLFCADPKEQWVKDAMQHLDRQAAALTRNG
notes: also called phage-chemokine
B4: the binding result with CCR5 (on HEK-CCR5 cells) is “no binding”.

B5: F2 (CX3CL1 analogue with N-terminal sequence QPQGVS) (ligand)
chain: QPQGVSKCNITCSKMTSKIPVALLIHYQQNQASCGKRAIILETRQHRLFCADPKEQWVKDAMQHLDRQAAALTRNG
notes: Produced by chemical synthesis
With B5, the IC50 with human CX3CR1 receptor [3] amounted to 0.05 nM.

B6: F1 (CX3CL1 analogue, soluble chemokine domain with N-terminal sequence ILDNGVS) (ligand)
chain: ILDNGVSKCNITCSKMTSKIPVALLIHYQQNQASCGKRAIILETRQHRLFCADPKEQWVKDAMQHLDRQAAALTRNG
notes: also called F1 analogue; soluble F1
Consider B6, for which, in the experiment with human CX3CR1 receptor [4], the IC50 came out at 1.9 nM and the “Log IC50” value was -8.73.

B7: phage-F1 (phage clone ILDNGVS) (other, not shown: large carriers)
chain: ILDNGVSKCNITCSKMTSKIPVALLIHYQQNQASCGKRAIILETRQHRLFCADPKEQWVKDAMQHLDRQAAALTRNG
As to B7, the binding result with CCR5 (on HEK-CCR5 cells) was “no binding”.

B8: F2-Ig (F2 fused to a domain of an immunoglobulin) (Fc fusion)
chain: QPQGVSKCNITCSKMTSKIPVALLIHYQQNQASCGKRAIILETRQHRLFCADPKEQWVKDAMQHLDRQAAALTRNGAAAHPRGPTIKPCPPCKCPAPNLEGGPSVFIFPPKIKDVLMISLSPIVTCVVVDVSEDDPDVQISWFVNNVEVHTAQTQTHREDYDSTLRVVSALPIQHQDWMSGKAFACAVNNKDLPAPIGRTISKPKGSVRAPQVYVLPPPEEEMTKKQVTLTCMVTDFMPEDIYVEWTNNGKTELNYKNTEPVLDSDGSYFMYSKLRVEKKNWVERNSYSCSVVHEGLHNHHTTKSFSRPPGK
In turn, B8 returned a half-inhibitory concentration (IC50) in the experiment with human CX3CR1 receptor [2] of 0.39 nM.

(Values after patent US20120141538A1 (UNIVERSITE PIERRE ET MARIE CURIE PARIS VI, published 2012).)
